Test [1] concerns the target T1, Nluc-IL23R fusion protein (human, UniProt Q5VWK5 22-629).
T1 construct: range 22-629; Stably expressed in HEK293 cells; also called hIL-23R; human IL-23R; not shown: Nanoluc protein (N1371, Promega) at the N-terminus, after a secretion signal
T1 sequence (looked up): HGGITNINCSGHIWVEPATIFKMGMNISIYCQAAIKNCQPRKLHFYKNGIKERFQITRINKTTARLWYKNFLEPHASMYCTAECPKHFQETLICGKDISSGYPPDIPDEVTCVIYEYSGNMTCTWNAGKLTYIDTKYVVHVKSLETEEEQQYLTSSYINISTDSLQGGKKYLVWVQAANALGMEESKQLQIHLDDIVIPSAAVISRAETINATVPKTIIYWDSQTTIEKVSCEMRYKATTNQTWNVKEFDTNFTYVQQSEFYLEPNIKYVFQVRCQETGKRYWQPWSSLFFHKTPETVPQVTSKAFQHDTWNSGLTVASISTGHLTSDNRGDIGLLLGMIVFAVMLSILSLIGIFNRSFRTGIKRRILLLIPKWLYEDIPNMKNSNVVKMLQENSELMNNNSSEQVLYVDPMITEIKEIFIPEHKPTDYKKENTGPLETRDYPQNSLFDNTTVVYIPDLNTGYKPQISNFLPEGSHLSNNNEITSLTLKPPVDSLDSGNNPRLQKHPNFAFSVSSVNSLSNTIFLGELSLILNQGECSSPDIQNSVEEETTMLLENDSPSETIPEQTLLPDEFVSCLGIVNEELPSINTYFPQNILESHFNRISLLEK
The test can be described thus: BRET competition vs TAMRA-labelled peptide, Nluc-IL23R membranes. For orientation: Bioluminescence resonance energy transfer reports proximity on the nanometre scale.

The target in test [2] is T2, human IL-23R endogenously expressed on DB cells (human, UniProt Q5VWK5 24-629).
T2 sequence (looked up): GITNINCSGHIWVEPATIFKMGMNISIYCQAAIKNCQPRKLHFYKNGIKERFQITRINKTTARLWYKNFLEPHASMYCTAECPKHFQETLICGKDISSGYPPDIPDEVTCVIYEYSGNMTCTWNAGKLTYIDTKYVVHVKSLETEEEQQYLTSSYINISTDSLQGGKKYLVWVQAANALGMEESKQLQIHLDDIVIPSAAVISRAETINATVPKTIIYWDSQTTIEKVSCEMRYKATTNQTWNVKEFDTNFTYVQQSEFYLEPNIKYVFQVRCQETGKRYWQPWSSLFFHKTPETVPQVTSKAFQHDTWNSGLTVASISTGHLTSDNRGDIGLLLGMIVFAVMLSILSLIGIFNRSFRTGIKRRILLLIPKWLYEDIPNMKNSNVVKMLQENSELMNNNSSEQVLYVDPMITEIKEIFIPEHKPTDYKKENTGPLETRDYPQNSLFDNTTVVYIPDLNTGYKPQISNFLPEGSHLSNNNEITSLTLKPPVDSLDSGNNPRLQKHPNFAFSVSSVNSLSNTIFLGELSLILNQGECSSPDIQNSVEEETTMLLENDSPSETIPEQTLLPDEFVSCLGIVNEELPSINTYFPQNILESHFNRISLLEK
The test can be described thus: cell-based or functional assay.

*1 amine or outer side, *2 acyl side, *3 side chain or, on linkers, in order; H or OH if unused. Bridges are numbered along the chain shown (N, C = ends). Primed or numbered codes have the meaning given here. Where no end group is shown, it is not given here. [ ]: non-standard residue; d: D form. 4‑Aminomethyl‑phenylacetyl = 4-aminomethyl-phenylacetyl unit, its amine closes the lactam, O=C(Cc1ccc(CN[*:1])cc1)[*:2]; 1,3‑dibromopropan‑2‑one″ = linker forming 1,3-dithio-propan-2-one bridge -SCH2C(=O)CH2S- between two Cys; (N3)‑K = lysine with the alpha-amine converted to an azide, [N-]=[N+]=N[C@@H](CCCCN[*:3])C(=O)[*:2]; bLys = L-beta-lysine, (3S)-3,6-diaminohexanoic acid, O=C(C[C@H](CCCN[*:3])N[*:1])[*:2]; Phe(4-Me) = Cc1ccc(C[C@H](N)C(=O)O)cc1; 2Nal = N[C@@H](Cc1ccc2ccccc2c1)C(=O)O; AEF = NCCOc1ccc(C[C@H](N)C(=O)O)cc1; 3Pal = N[C@@H](Cc1cccnc1)C(=O)O; αMeL = CC(C)C[C@](C)(N)C(=O)O; CH2COCH2 = O=C(C[*:1])C[*:2]; 3Amb = NCc1cccc(C(=O)O)c1; NMeS = CN[C@@H](CO)C(=O)O; dDab = NCC[C@@H](N)C(=O)O; Pra = C#CC[C@H](N)C(=O)O; Dab = NCC[C@H](N)C(=O)O; Aib = CC(C)(N)C(=O)O; βAla = NCCC(=O)O

B1: Compound 1 (peptide)
peptide: [dK]TVWQE[AEF][2Nal][αMeL]E[Dab][3Pal]-NH2
modifications: lactam 1-10; lactam (positions not given here); not fully specified (bridges); printed as [{d}K](1c)(6c)^{†}TVWQE(6c)[Y(2-aminoethoxy)][2-Nal][2-Me-Leu]E(1c)[Dab][3-(3-Pyridyl)-Ala]-[NH2]
In turn, B1 showed a % displacement in test [1] of 103%. In test [2], the “hIL-23 (pSTAT3) antagonist % inhibition” value turned out to be 102% and the “hIL-23 (pSTAT3) antagonist IC50” value came out at 0.23 nM.
For [4‑Aminomethyl‑phenylacetyl]SCWQC[AEF][2Nal][αMeL]E[Dab]-NH2 (lactam N-10; linker 3-6 via 1,3‑dibromopropan‑2‑one″) [Ref 82] the same measures were 103%, 97% and 11 nM.
Regarding [4‑Aminomethyl‑phenylacetyl][NMeS]CWQC[AEF][2Nal][αMeL]E[Dab]-NH2 (lactam N-10; linker 3-6 via CH2COCH2) [Ref 141], the % displacement in test [1] was 102%.
The molecule [4‑Aminomethyl‑phenylacetyl]SEWQ[Dab][AEF][2Nal][αMeL]E[Dab][3Pal]-NH2 (lactam N-10; bridge 3-6; also: (2c) bridge type not defined) [Ref 122] yielded a % displacement in test [1] of 97%. The “hIL-23 (pSTAT3) antagonist IC50” value in test [2] was found to be 28 pM.

B2: Compound 17 (peptide)
peptide: KIVWQE[Phe(4-Me)][2Nal][Aib]E[Dab][3Pal]-NH2
modifications: lactam 1-10, N-6
SMILES: CC[C@H](C)[C@@H]1NC(=O)[C@@H]2CCCCNC(=O)CC[C@@H](C(=O)N[C@@H](CCN)C(=O)N[C@@H](Cc3cccnc3)C(N)=O)NC(=O)C(C)(C)NC(=O)[C@H](Cc3ccc4ccccc4c3)NC(=O)[C@H](Cc3ccc(C)cc3)NC(=O)[C@H](CCC(=O)N2)NC(=O)[C@H](CCC(N)=O)NC(=O)[C@H](Cc2c[nH]c3ccccc23)NC(=O)[C@H](C(C)C)NC1=O
Usually IC50 stands for the point on the concentration scale where inhibition reaches its midpoint. Read a high IC50 as weaker potency in that assay. In test [1], B2 gave a % displacement of 107% and an IC50 of 0.092 nM. In test [2], the “hIL-23 (pSTAT3) antagonist % inhibition” value came out at 99% and the “hIL-23 (pSTAT3) antagonist IC50” value turned out to be 2.9 nM.

B3: Compound 60 (peptide)
peptide: KIVWQE[AEF][2Nal][αMeL]E[Dab][3Pal]-NHMe
modifications: lactam 1-10, N-6
SMILES: CC[C@H](C)[C@@H]1NC(=O)[C@@H]2CCCCNC(=O)CC[C@@H](C(=O)N[C@@H](CCN)C(=O)N[C@@H](Cc3cccnc3)C(=O)NC)NC(=O)[C@](C)(CC(C)C)NC(=O)[C@H](Cc3ccc4ccccc4c3)NC(=O)[C@H](Cc3ccc(OCCN)cc3)NC(=O)[C@H](CCC(=O)N2)NC(=O)[C@H](CCC(N)=O)NC(=O)[C@H](Cc2c[nH]c3ccccc23)NC(=O)[C@H](C(C)C)NC1=O
In test [1], B3 showed a % displacement of 95%. Also, in test [2], the “hIL-23 (pSTAT3) antagonist % inhibition” value worked out at 101% and the “hIL-23 (pSTAT3) antagonist IC50” value was 0.63 nM.

B4: Compound 43 (peptide)
peptide: KWQE[AEF][2Nal][αMeL]E[Dab][3Pal]-NHMe
modifications: lactam 1-8, N-4
SMILES: CNC(=O)[C@H](Cc1cccnc1)NC(=O)[C@H](CCN)NC(=O)[C@@H]1CCC(=O)NCCCC[C@@H]2NC(=O)CC[C@H](NC(=O)[C@H](CCC(N)=O)NC(=O)[C@H](Cc3c[nH]c4ccccc34)NC2=O)C(=O)N[C@@H](Cc2ccc(OCCN)cc2)C(=O)N[C@@H](Cc2ccc3ccccc3c2)C(=O)N[C@@](C)(CC(C)C)C(=O)N1
As for B4, the % displacement in test [1] was determined as 100%.

B5: Compound 110 (peptide)
peptide: K[βAla]WQEW[2Nal][αMeL]E[Dab][3Pal]-NHMe
modifications: lactam 1-9, N-5
SMILES: CNC(=O)[C@H](Cc1cccnc1)NC(=O)[C@H](CCN)NC(=O)[C@@H]1CCC(=O)NCCCC[C@@H]2NC(=O)CC[C@H](NC(=O)[C@H](CCC(N)=O)NC(=O)[C@H](Cc3c[nH]c4ccccc34)NC(=O)CCNC2=O)C(=O)N[C@@H](Cc2c[nH]c3ccccc23)C(=O)N[C@@H](Cc2ccc3ccccc3c2)C(=O)N[C@@](C)(CC(C)C)C(=O)N1
In turn, B5 registered a % displacement in test [1] of 100%.

B6: Compound 11 (peptide)
peptide: [dDab]TVWQD[AEF][2Nal][αMeL]E[Dab][3Pal]-NH2
modifications: lactam 1-10, N-6
SMILES: CC(C)C[C@]1(C)NC(=O)[C@H](Cc2ccc3ccccc3c2)NC(=O)[C@H](Cc2ccc(OCCN)cc2)NC(=O)[C@@H]2CC(=O)N[C@H](CCNC(=O)CC[C@@H](C(=O)N[C@@H](CCN)C(=O)N[C@@H](Cc3cccnc3)C(N)=O)NC1=O)C(=O)N[C@@H]([C@@H](C)O)C(=O)N[C@@H](C(C)C)C(=O)N[C@@H](Cc1c[nH]c3ccccc13)C(=O)N[C@@H](CCC(N)=O)C(=O)N2
With B6, the % displacement in test [1] is 104%.
Turning to [4‑Aminomethyl‑phenylacetyl]SCWQC[AEF][2Nal][αMeL]E[dR]-NH2 (lactam N-10; linker 3-6 via 1,3‑dibromopropan‑2‑one″) [Ref 80], the % displacement in test [1] amounted to 98%. In test [2], the “hIL-23 (pSTAT3) antagonist % inhibition” value was determined as 97% and the “hIL-23 (pSTAT3) antagonist IC50” value turned out to be 11 nM.
[3Amb]SCWQC[AEF][2Nal][αMeL]ER[3Pal]-NH2 (lactam N-10; linker 3-6 via 1,3‑dibromopropan‑2‑one″) [Ref 78] registered a % displacement in test [1] of 100%. In test [2], the “hIL-23 (pSTAT3) antagonist % inhibition” value came out at 100% and the “hIL-23 (pSTAT3) antagonist IC50” value was 0.13 nM.

B7: Compound 41 (peptide)
peptide: [(N3)‑K]TWQ[Pra][AEF][2Nal][αMeL]E[Dab][3Pal]-NHMe
modifications: lactam 1-9; triazole (positions not given here); not fully specified (bridges); printed as [(N₃)-K](1c)(6g)^{†}TWQ[Pra](6g)[Y(2-aminoethoxy)][2-Nal][2-Me-Leu]E(1c)[Dab][3-(3-Pyridyl)-Ala]-[NHMe]
The molecule B7 registered a % displacement in test [1] of 98%.
In test [1], [bLys]TVWQE[AEF][2Nal][αMeL]E[Dab][3Pal]-NH2 (lactam 1-10, N-6) [Compound 12] registered a % displacement of 104%. For the same molecule, the “hIL-23 (pSTAT3) antagonist % inhibition” value in test [2] was found to be 100%.
In test [1], [4‑Aminomethyl‑phenylacetyl]SCWQC[AEF][2Nal][αMeL]E[Dab][3Pal]-NH2 (lactam N-10; linker 3-6 via 1,3‑dibromopropan‑2‑one″) [Ref 120] showed a % displacement of 94%. In addition, in test [2], the “hIL-23 (pSTAT3) antagonist % inhibition” value was found to be 101% and the “hIL-23 (pSTAT3) antagonist IC50” value was 54 pM.

B8: Compound 42 (peptide)
peptide: XTWQXXXXEXX
modifications: not fully specified; [{d}(N3)-K](1c)(6g)^†TWQ[Hpg](6g)[Y(2-aminoethoxy)][2-Nal][2-Me-Leu]E(1c)[Dab][3-(3-Pyridyl)-Ala]-[NHMe]; (1c) [2,11] lactam; (6g) [2,7] 1,4-disubstituted 1,2,3-triazole bridge; ^† alpha-amine converted into an azide in bridge
Regarding B8, the % displacement in test [1] stood at 96%.
In turn, [4‑Aminomethyl‑phenylacetyl]SCWQC[AEF][2Nal][αMeL]ER-NH2 (lactam N-10; linker 3-6 via 1,3‑dibromopropan‑2‑one″) [Ref 52] registered a % displacement in test [1] of 100%. In test [2], the “hIL-23 (pSTAT3) antagonist % inhibition” value is 103% and the “hIL-23 (pSTAT3) antagonist IC50” value was found to be 7.8 nM.
As for Ac-KTCWQC[AEF][2Nal][αMeL]E[Dab][3Pal]-NH2 (lactam 1-10; linker 3-6 via 1,3‑dibromopropan‑2‑one″) [Ref 155], the % displacement in test [1] was determined as 97%. Further, in test [2], the “hIL-23 (pSTAT3) antagonist % inhibition” value came to 100% and the “hIL-23 (pSTAT3) antagonist IC50” value amounted to 31 pM.
With [3Amb]SCWQC[AEF][2Nal][αMeL]E[dR]-NH2 (lactam N-10; linker 3-6 via 1,3‑dibromopropan‑2‑one″) [Ref 41], in test [1], the % displacement worked out at 110%. Moreover, in test [2], the “hIL-23 (pSTAT3) antagonist % inhibition” value turned out to be 99% and the “hIL-23 (pSTAT3) antagonist IC50” value is 29 nM.

(Values after patent EP4471048A1, “PEPTIDE INHIBITORS OF INTERLEUKIN-23 RECEPTOR” (Zealand Pharma A/S, priority 2023, dated 2024).)
